Measurements taken from patent US20180057596A1 (AstraZeneca / MedImmune, published 2018).
Positions count from the first letter of the chain named. Values joined by “and” are separate entries in the source; they are usually repeats but may differ in a detail not shown here. Equal entries are not always repeated. Where two headings read alike, the source gives them in different places.

T1: human IL-4Rα on TF-1 cells (human, UniProt P24394 26-825)
T1 sequence (looked up): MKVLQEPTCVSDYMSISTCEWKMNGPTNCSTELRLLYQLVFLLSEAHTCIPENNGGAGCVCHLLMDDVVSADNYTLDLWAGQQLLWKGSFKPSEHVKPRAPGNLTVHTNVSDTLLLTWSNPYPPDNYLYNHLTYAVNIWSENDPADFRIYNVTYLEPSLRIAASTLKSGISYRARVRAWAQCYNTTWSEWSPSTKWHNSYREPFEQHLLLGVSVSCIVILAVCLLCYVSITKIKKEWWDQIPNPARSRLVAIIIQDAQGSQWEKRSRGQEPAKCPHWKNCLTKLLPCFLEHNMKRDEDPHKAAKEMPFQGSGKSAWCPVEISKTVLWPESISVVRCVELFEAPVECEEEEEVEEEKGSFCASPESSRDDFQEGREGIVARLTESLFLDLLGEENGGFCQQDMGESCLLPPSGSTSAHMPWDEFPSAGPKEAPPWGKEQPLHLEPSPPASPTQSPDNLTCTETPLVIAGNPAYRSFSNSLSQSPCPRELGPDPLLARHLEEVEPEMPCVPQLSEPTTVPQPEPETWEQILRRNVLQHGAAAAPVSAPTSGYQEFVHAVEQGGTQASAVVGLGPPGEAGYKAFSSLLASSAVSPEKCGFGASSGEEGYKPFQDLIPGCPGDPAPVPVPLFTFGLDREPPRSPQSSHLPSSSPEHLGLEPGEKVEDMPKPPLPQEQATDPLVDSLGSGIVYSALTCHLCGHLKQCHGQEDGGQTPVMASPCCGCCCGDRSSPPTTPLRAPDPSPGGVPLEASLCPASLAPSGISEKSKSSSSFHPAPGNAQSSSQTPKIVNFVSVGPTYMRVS

T2: cynomolgus IL-4Rα HIS FLAG (cynomolgus)
T2 construct: also called Cyno IL4Rα HIS FLAG; not shown: HIS and FLAG tags and any vector-encoded linker of the cynomolgus HIS FLAG construct
T2 chain: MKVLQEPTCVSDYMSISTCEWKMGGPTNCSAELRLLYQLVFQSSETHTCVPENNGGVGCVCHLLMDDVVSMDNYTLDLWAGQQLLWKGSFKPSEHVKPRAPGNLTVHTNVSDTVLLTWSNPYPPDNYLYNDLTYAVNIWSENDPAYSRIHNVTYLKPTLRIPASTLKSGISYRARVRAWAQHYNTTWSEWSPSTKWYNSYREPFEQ

B1: human IL-4Rα HIS FLAG (in house HEK-EBNA derived) (receptor)
chain: MKVLQEPTCVSDYMSISTCEWKMNGPTNCSTELRLLYQLVFLLSEAHTCIPENNGGAGCVCHLLMDDVVSADNYTLDLWAGQQLLWKGSFKPSEHVKPRAPGNLTVHTNVSDTLLLTWSNPYPPDNYLYNHLTYAVNIWSENDPADFRIYNVTYLEPSLRIAASTLKSGISYRARVRAWAQCYNTTWSEWSPSTKWHNSYREPFNPAFLYKVVGAADYKDDDDKAAHHHHHHHHHH
modifications: biotinylated where used as the labelled partner in the DELFIA assay
notes: also called HuIL-4Rα; Human IL4-Rα/FLAG/HIS tag
B2: Antibody 1 IgG (antibody, V domains shown)
VH: QVQLVQSGAEVKKPGASVKVSCKASGYAFTSYYMHWARQAPGQGLEWMGIINPSGGSTSYAQKFQGRVTMTRDTSTSTVYMELSSLRSEDTAVYYCARGKWWLDYWGKGTLVTVSS
VL: QSVLTQPPSVSAAPGQKVTISCSGGSSNIGNSYVSWYQQLPGTAPKLLIYDNNKRPSGIPDRFSGSKSGTSATLAITGLQTGDEADYYCGTWDTSLSANYVFGTGTKLTVL
B3: Antibody 24 (PGL) IgG (antibody, V domains shown)
VH: B2 VH with A37V, S54R, W101Y, L103M, D104Y, Y105D
VL: B2 VL with A75G, Y88F, L96T, S97V, A98W, N99E, Y100W, V101P
B4: Antibody 20 IgG (antibody, V domains shown)
VH: B2 VH with W101Y, L103M, D104Y, Y105D
VL: B2 VL with L96T, S97V, A98W, N99E, Y100W, V101P
B5: Antibody 9 IgG (antibody, V domains shown)
VH: B2 VH with D104Y, Y105N
VL: B2 VL with L96T, S97T, A98M, N99Y, Y100P, V101L
B6: Antibody 2 IgG (antibody, V domains shown)
VH: B2 VH with D104Y, Y105N
VL: B2 VL with L96Q, S97P, A98P, Y100P, V101L
B7: Antibody 37 IgG (antibody, V domains shown)
VH: B2 VH with S54R, T69A, S88P, W101Y, L103M, D104Y, Y105D
VL: B2 VL with S26G, N28S, I59V, L96P, S97V, A98W, N99E, Y100W, V101P

How the values were obtained:
[1] = molecular target: T3, antibody tested in the epitope mapping of Example 5; assay: HTRF competition, test protein against biotinylated human IL-4Rα/Fc for cryptate labelled antibody
T3 construct: also called an antibody of the invention
Experimental: (§1) Antibody was cryptate labelled with Eu³⁺ Cryptate labelling kit according to the manufacturer's instructions (CisBio International Cat No. 62EUSPEA) and IL-4R•/Fc (R&D systems Cat. No. 604-4R-050) was Biotin labelled with EZ Link NHS-Biotin according to the manufacturer's instructions (Perbio Cat No. 20217). […] 1% BSA, 0. 4M potassium fluoride in a total volume of 20 μl in a 384 well microtitre plate (Greiner). To the assay a dilution series (from 1000 nM to 0.017 nM) of test proteins was added and the assay incubated overnight at 4° C. FRET signal was detected using a PerkinElmer EnVision plate reader using a 320 nm excitation filter and 620 nm and 665 nm emission filters. Results were calculated from the 665/620 ratio as a percentage of specific binding (signal with no competitor antigen). Results were analysed with Prism (GraphPad Software) using the sigmoidal dose response model.
Antibody binding of chimeric molecules was tested in an HTRF (Homogeneous Time Resolved Fluorescence) competition assay. Molecules which bound antibody at the same paratope as human IL-4R• inhibited the binding interaction, leading to a reduction in signal. From inhibition curves IC₅₀ values for human IL-4R•, mouse IL-4R• and chimeric molecules were calculated (Table 5). […] Chimeras that gave similar IC₅₀ values to native human IL-4R• still contained the epitope.

[2] = molecular target: T3, antibody tested in the epitope mapping …; assay: as above; remark: listed apart in the source
Experimental: as §1

[3] = molecular target: T3, antibody tested in the epitope mapping …; assay: as above; remark: listed apart in the source
Experimental: as §1

[4] = molecular target: T1, human IL-4Rα on TF-1 cells; assay: cell-based or functional assay
[5] = molecular target: T1, human IL-4Rα on TF-1 cells; assay: cell-based or functional assay; remark: listed apart in the source
[6] = molecular target: T1, human IL-4Rα on TF-1 cells; assay: cell-based or functional assay; remark: listed apart in the source
[7] = molecular target: B1; assay: SPR (BIAcore 2000), IgG captured on Protein G', receptor as analyte, 1:1 Langmuir
Experimental: (§2) In brief, Protein G′ (Sigma Aldrich, P4689) was covalently coupled to the surface of a CM5 sensor chip using standard amine coupling reagents according to manufacturer's instructions (BIAcore). This Protein G′ surface was used to capture a constant amount of purified anti-IL4R• antibodies or isotype control via the Fc domain. Human or cynomolgus IL-4R• HIS FLAG prepared in HBS-EP buffer (BIAcore AB), at a range of concentrations, between 100 nM and 0.2 nM, were passed over the sensor chip surface. […] The resulting sensorgrams were evaluated using BIA evaluation 4.1 software and fitted to 1:1 Langmuir binding model, to provide the relative binding data. The experiments were performed over the course of at least three separate days to calculate an average monovalent affinity.

[8] = molecular target: T2, cynomolgus IL-4Rα HIS FLAG; assay: as above
Experimental: as §2

[9] = molecular target: B1; assay: SPR (BIAcore 2000), value in parentheses under the mean, taken as a single determination
Experimental: as §2

[10] = molecular target: T2, cynomolgus IL-4Rα HIS FLAG; assay: as above
Experimental: as §2

[11] = molecular target: B1; assay: SPR (BIAcore 2000), value in parentheses under the mean, taken as a single determination; single determination, one of three separate days; the mean is 0.255 nM
Experimental: as §2

B1
IC50 [1]: 0.673 nM | IC50 [2]: 0.673 nM | IC50 [3]: 0.673 nM

B2
IC50 geomean, IL-4 induced TF-1 cell proliferation [4]: 38 nM | IC50 geomean, IL-13 induced TF-1 cell proliferation [4]: 18 nM

B3
IC50 (pM), IL-4 induced TF-1 cell proliferation [5]: 15.3 pM | IC50 (pM), IL-13 induced TF-1 cell proliferation [5]: 55 pM

B4
IC50 (pM), IL-4 induced TF-1 cell proliferation [6]: 31.1 pM | IC50 (pM), IL-13 induced TF-1 cell proliferation [6]: 66.1 pM | Kd [7]: 1.25 nM | koff [7]: 0.000873 s⁻¹ | kon [7]: 698000 M⁻¹ s⁻¹ | Kd [8]: 27.7 nM | koff [8]: 0.00452 s⁻¹ | kon [8]: 163000 M⁻¹ s⁻¹

B5
IC50 (pM), IL-4 induced TF-1 cell proliferation [6]: 8.88 pM | IC50 (pM), IL-13 induced TF-1 cell proliferation [6]: 20.4 pM | Kd [7]: 0.422 nM | koff [7]: 0.000229 s⁻¹ | kon [7]: 543000 M⁻¹ s⁻¹ | Kd [8]: 124 nM | koff [8]: 0.0163 s⁻¹ | kon [8]: 131000 M⁻¹ s⁻¹

B6
IC50 (pM), IL-4 induced TF-1 cell proliferation [6]: 41.7 pM | IC50 (pM), IL-13 induced TF-1 cell proliferation [6]: 171 pM | Kd [7]: 4.51 nM | koff [7]: 0.00294 s⁻¹ | kon [7]: 651000 M⁻¹ s⁻¹ | Kd [8]: 47.5 nM | koff [8]: 0.00459 s⁻¹ | kon [8]: 96700 M⁻¹ s⁻¹

B7
IC50 (pM), IL-4 induced TF-1 cell proliferation [6]: 10.4 pM | IC50 (pM), IL-13 induced TF-1 cell proliferation [6]: 22.1 pM | Kd [7]: 0.255 nM | koff [7]: 0.000162 s⁻¹ | kon [7]: 640000 M⁻¹ s⁻¹ | Kd [8]: 2.97 nM | koff [8]: 0.000688 s⁻¹ | kon [8]: 243000 M⁻¹ s⁻¹ | Kd [9]: 0.25 nM and 0.203 nM | Kd [10]: 2.59 nM and 2.36 nM and 3.96 nM | Kd [11]: 0.313 nM
